The chains are these.
T1: EsCas13d, nuclease-dead (Eubacterium siraeum, UniProt B0MS50, R295A;H300A;R849A;H854A)
T1 sequence: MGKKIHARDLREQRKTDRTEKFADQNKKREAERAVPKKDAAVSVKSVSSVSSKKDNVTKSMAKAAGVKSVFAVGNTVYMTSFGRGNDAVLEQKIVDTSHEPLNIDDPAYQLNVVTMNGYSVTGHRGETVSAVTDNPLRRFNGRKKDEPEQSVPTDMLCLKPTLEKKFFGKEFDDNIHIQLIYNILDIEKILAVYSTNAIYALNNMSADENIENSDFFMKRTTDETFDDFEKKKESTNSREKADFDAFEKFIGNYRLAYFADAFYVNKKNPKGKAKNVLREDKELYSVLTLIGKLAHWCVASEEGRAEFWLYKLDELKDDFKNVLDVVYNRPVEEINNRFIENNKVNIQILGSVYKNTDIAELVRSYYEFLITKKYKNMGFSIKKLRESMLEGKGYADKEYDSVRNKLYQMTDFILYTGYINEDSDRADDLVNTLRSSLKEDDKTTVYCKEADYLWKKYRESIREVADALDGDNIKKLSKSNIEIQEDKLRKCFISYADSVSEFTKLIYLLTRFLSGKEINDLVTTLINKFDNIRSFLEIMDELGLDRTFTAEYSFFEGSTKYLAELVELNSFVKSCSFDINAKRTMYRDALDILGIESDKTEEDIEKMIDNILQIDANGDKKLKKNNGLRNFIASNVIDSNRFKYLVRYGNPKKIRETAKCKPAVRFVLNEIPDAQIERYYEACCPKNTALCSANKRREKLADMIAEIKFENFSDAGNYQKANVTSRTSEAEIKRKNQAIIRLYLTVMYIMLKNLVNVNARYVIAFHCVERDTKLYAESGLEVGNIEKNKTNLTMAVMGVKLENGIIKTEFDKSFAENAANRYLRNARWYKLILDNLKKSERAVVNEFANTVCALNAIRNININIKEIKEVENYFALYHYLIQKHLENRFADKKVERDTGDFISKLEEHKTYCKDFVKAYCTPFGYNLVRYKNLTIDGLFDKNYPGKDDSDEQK

B1: target 1 insG 3' of 14,insG 3' of 14 (mixed)
RNA 1: CACCCGUGCAAAAAUGCAGGGGUCUAAAACUGAGCGGAUAACCUCUCUAUGG
RNA 2: GGGAAUGGAUCCACAUCUACGAAUUCGUACCAUAGAGAGGGGUUAUCCGCUCACCGAGAUCGGAAGAGCACACGU
B2: target 1 insU 3' of 5,insU 3' of 1 (mixed)
RNA 1: CACCCGUGCAAAAAUGCAGGGGUCUAAAACUGAGCGGAUAACCUCUCUAUGG
RNA 2: GGGAAUGGAUCCACAUCUACGAAUUCGUACCAUAGAGAGGUUAUCCGUCUCAUCCGAGAUCGGAAGAGCACACGU
B3: target 1 insU 3' of 15,insA 3' of 11 (mixed)
RNA 1: CACCCGUGCAAAAAUGCAGGGGUCUAAAACUGAGCGGAUAACCUCUCUAUGG
RNA 2: GGGAAUGGAUCCACAUCUACGAAUUCGUACCAUAGAGUAGGUAUAUCCGCUCACCGAGAUCGGAAGAGCACACGU
B4: target 1 complement block 8-12 (mixed)
RNA 1: CACCCGUGCAAAAAUGCAGGGGUCUAAAACUGAGCGGAUAACCUCUCUAUGG
RNA 2: GGGAAUGGAUCCACAUCUACGAAUUCGUACCAUAGAGAGCAAUACCGCUCACCGAGAUCGGAAGAGCACACGU
B5: target 1 C2U,U11C (mixed)
RNA 1: CACCCGUGCAAAAAUGCAGGGGUCUAAAACUGAGCGGAUAACCUCUCUAUGG
RNA 2: GGGAAUGGAUCCACAUCUACGAAUUCGUACCAUAGAGAGGCUAUCCGCUUACCGAGAUCGGAAGAGCACACGU
B6: target 1 insC 3' of 20,insU 3' of 18 (mixed)
RNA 1: CACCCGUGCAAAAAUGCAGGGGUCUAAAACUGAGCGGAUAACCUCUCUAUGG
RNA 2: GGGAAUGGAUCCACAUCUACGAAUUCGUACCACUAUGAGAGGUUAUCCGCUCACCGAGAUCGGAAGAGCACACGU
B7: target 1 insG 3' of 9,insG 3' of 3 (mixed)
RNA 1: CACCCGUGCAAAAAUGCAGGGGUCUAAAACUGAGCGGAUAACCUCUCUAUGG
RNA 2: GGGAAUGGAUCCACAUCUACGAAUUCGUACCAUAGAGAGGUUAGUCCGCUGCACCGAGAUCGGAAGAGCACACGU
B8: target 1 insG 3' of 9,insU 3' of 6 (mixed)
RNA 1: CACCCGUGCAAAAAUGCAGGGGUCUAAAACUGAGCGGAUAACCUCUCUAUGG
RNA 2: GGGAAUGGAUCCACAUCUACGAAUUCGUACCAUAGAGAGGUUAGUCCUGCUCACCGAGAUCGGAAGAGCACACGU
B9: target 1 A9C,C22A (mixed)
RNA 1: CACCCGUGCAAAAAUGCAGGGGUCUAAAACUGAGCGGAUAACCUCUCUAUGG
RNA 2: GGGAAUGGAUCCACAUCUACGAAUUCGUAACAUAGAGAGGUUCUCCGCUCACCGAGAUCGGAAGAGCACACGU
B10: target 1 insU 3' of 6,insC 3' of 3 (mixed)
RNA 1: CACCCGUGCAAAAAUGCAGGGGUCUAAAACUGAGCGGAUAACCUCUCUAUGG
RNA 2: GGGAAUGGAUCCACAUCUACGAAUUCGUACCAUAGAGAGGUUAUCCUGCUCCACCGAGAUCGGAAGAGCACACGU
B11: target 1 insC 3' of 14,insA 3' of 13 (mixed)
RNA 1: CACCCGUGCAAAAAUGCAGGGGUCUAAAACUGAGCGGAUAACCUCUCUAUGG
RNA 2: GGGAAUGGAUCCACAUCUACGAAUUCGUACCAUAGAGACGAGUUAUCCGCUCACCGAGAUCGGAAGAGCACACGU
B12: target 1 insU 3' of 22,insG 3' of 22 (mixed)
RNA 1: CACCCGUGCAAAAAUGCAGGGGUCUAAAACUGAGCGGAUAACCUCUCUAUGG
RNA 2: GGGAAUGGAUCCACAUCUACGAAUUCGUACUGCAUAGAGAGGUUAUCCGCUCACCGAGAUCGGAAGAGCACACGU
B13: target 1 insC 3' of 18,insC 3' of 8 (mixed)
RNA 1: CACCCGUGCAAAAAUGCAGGGGUCUAAAACUGAGCGGAUAACCUCUCUAUGG
RNA 2: GGGAAUGGAUCCACAUCUACGAAUUCGUACCAUACGAGAGGUUAUCCCGCUCACCGAGAUCGGAAGAGCACACGU
B14: target 1 insU 3' of 18,insU 3' of 4 (mixed)
RNA 1: CACCCGUGCAAAAAUGCAGGGGUCUAAAACUGAGCGGAUAACCUCUCUAUGG
RNA 2: GGGAAUGGAUCCACAUCUACGAAUUCGUACCAUAUGAGAGGUUAUCCGCUUCACCGAGAUCGGAAGAGCACACGU
B15: target 1 insU 3' of 20,insG 3' of 1 (mixed)
RNA 1: CACCCGUGCAAAAAUGCAGGGGUCUAAAACUGAGCGGAUAACCUCUCUAUGG
RNA 2: GGGAAUGGAUCCACAUCUACGAAUUCGUACCAUUAGAGAGGUUAUCCGCUCAGCCGAGAUCGGAAGAGCACACGU
B16: target 1 insU 3' of 12,insA 3' of 10 (mixed)
RNA 1: CACCCGUGCAAAAAUGCAGGGGUCUAAAACUGAGCGGAUAACCUCUCUAUGG
RNA 2: GGGAAUGGAUCCACAUCUACGAAUUCGUACCAUAGAGAGGUUUAAUCCGCUCACCGAGAUCGGAAGAGCACACGU
B17: target 1 A1G,U11C (mixed)
RNA 1: CACCCGUGCAAAAAUGCAGGGGUCUAAAACUGAGCGGAUAACCUCUCUAUGG
RNA 2: GGGAAUGGAUCCACAUCUACGAAUUCGUACCAUAGAGAGGCUAUCCGCUCGCCGAGAUCGGAAGAGCACACGU
B18: target 1 insG 3' of 20,insC 3' of 9 (mixed)
RNA 1: CACCCGUGCAAAAAUGCAGGGGUCUAAAACUGAGCGGAUAACCUCUCUAUGG
RNA 2: GGGAAUGGAUCCACAUCUACGAAUUCGUACCAGUAGAGAGGUUACUCCGCUCACCGAGAUCGGAAGAGCACACGU
B19: target 1 insC 3' of 19,insC 3' of 3 (mixed)
RNA 1: CACCCGUGCAAAAAUGCAGGGGUCUAAAACUGAGCGGAUAACCUCUCUAUGG
RNA 2: GGGAAUGGAUCCACAUCUACGAAUUCGUACCAUCAGAGAGGUUAUCCGCUCCACCGAGAUCGGAAGAGCACACGU
B20: target 1 del7,del14 (mixed)
RNA 1: CACCCGUGCAAAAAUGCAGGGGUCUAAAACUGAGCGGAUAACCUCUCUAUGG
RNA 2: GGGAAUGGAUCCACAUCUACGAAUUCGUACCAUAGAGGGUUAUCGCUCACCGAGAUCGGAAGAGCACACGU
B21: target 1 insG 3' of 11,insA 3' of 4 (mixed)
RNA 1: CACCCGUGCAAAAAUGCAGGGGUCUAAAACUGAGCGGAUAACCUCUCUAUGG
RNA 2: GGGAAUGGAUCCACAUCUACGAAUUCGUACCAUAGAGAGGUGUAUCCGCAUCACCGAGAUCGGAAGAGCACACGU
B22: target 1 insA 3' of 19,insU 3' of 9 (mixed)
RNA 1: CACCCGUGCAAAAAUGCAGGGGUCUAAAACUGAGCGGAUAACCUCUCUAUGG
RNA 2: GGGAAUGGAUCCACAUCUACGAAUUCGUACCAUAAGAGAGGUUAUUCCGCUCACCGAGAUCGGAAGAGCACACGU
B23: target 1 insU 3' of 20,insC 3' of 1 (mixed)
RNA 1: CACCCGUGCAAAAAUGCAGGGGUCUAAAACUGAGCGGAUAACCUCUCUAUGG
RNA 2: GGGAAUGGAUCCACAUCUACGAAUUCGUACCAUUAGAGAGGUUAUCCGCUCACCCGAGAUCGGAAGAGCACACGU
B24: target 1 G5A,U10A (mixed)
RNA 1: CACCCGUGCAAAAAUGCAGGGGUCUAAAACUGAGCGGAUAACCUCUCUAUGG
RNA 2: GGGAAUGGAUCCACAUCUACGAAUUCGUACCAUAGAGAGGUAAUCCACUCACCGAGAUCGGAAGAGCACACGU
B25: target 1 U3A,U8C (mixed)
RNA 1: CACCCGUGCAAAAAUGCAGGGGUCUAAAACUGAGCGGAUAACCUCUCUAUGG
RNA 2: GGGAAUGGAUCCACAUCUACGAAUUCGUACCAUAGAGAGGUUACCCGCACACCGAGAUCGGAAGAGCACACGU
B26: target 1 del4 (mixed)
RNA 1: CACCCGUGCAAAAAUGCAGGGGUCUAAAACUGAGCGGAUAACCUCUCUAUGG
RNA 2: GGGAAUGGAUCCACAUCUACGAAUUCGUACCAUAGAGAGGUUAUCCGUCACCGAGAUCGGAAGAGCACACGU
B27: target 1 insU 3' of 15,insA 3' of 3 (mixed)
RNA 1: CACCCGUGCAAAAAUGCAGGGGUCUAAAACUGAGCGGAUAACCUCUCUAUGG
RNA 2: GGGAAUGGAUCCACAUCUACGAAUUCGUACCAUAGAGUAGGUUAUCCGCUACACCGAGAUCGGAAGAGCACACGU

The target of the data set is T1, EsCas13d, nuclease-dead. In words: crRNA (strand 1, pre-loaded); Mg2+; 40 mM Tris-HCl pH 7.5, 150 mM NaCl, 6 mM MgCl2, 1 mM DTT, 0.1% Tween-20, 0.2 mg/ml BSA; 25 C; 10 min per concentration, then washed. Conditions: tags: His6-TwinStrep-SUMO cleaved; N-terminal SNAP kept (SNAP-Surface 488); label: 3' end held by stalled T7 RNA polymerase.
On to B1, for which the equilibrium dissociation constant (Kd) was determined as 7.7 ± 0.6 nM.

With B2, the affinity, expressed as Kd, was 13.5 ± 0.6 nM. For B3, the Kd was found to be 27.8 ± 1.7 nM. In the case of B4 it was 12.7 ± 0.8 nM; in that of B5, 9.5 ± 0.4 nM; in that of B6, 6.12 ± 0.3 nM. To B7 belongs 10.3 ± 0.5 nM; to B8, 20.3 ± 1.2 nM. To B9 belongs 47 ± 9 nM.

B10 displayed a Kd of 10.5 ± 0.7 nM. In the case of B11 it was 28 ± 7 nM.

As to B12, binding was put at a Kd of 30.3 ± 2.5 nM. B13 gave a Kd of 44.9 ± 3 nM. In the case of B14 it was 20.2 ± 1.3 nM; in that of B15, 11.8 ± 1.2 nM.

Turning to B16, binding was characterised by a dissociation constant (Kd) of 10.3 ± 0.4 nM. In the case of B17 it was 8.4 ± 0.5 nM.

As for B18, the Kd was roughly 45 nM. To B19 belongs 30 ± 4 nM; to B20, 18 ± 0.6 nM; to B21, roughly 63 nM. To B22 belongs 32.5 ± 3.1 nM; to B23, 10.1 ± 1 nM; to B24, 84 ± 16 nM. To B25 belongs 7.6 ± 0.7 nM. The molecule B26 had a Kd of 34 ± 7 nM. In the case of B27 it was 8.9 ± 0.6 nM.

As a reminder, the Kd is the free concentration of one partner at which half of the binding sites on the other are occupied at equilibrium, for simple one-to-one binding.

The values above are taken from publication PMC10786891, “Massively parallel profiling of RNA-targeting CRISPR-Cas13d”.
